Among the data in patent US12398179 are IC50 values, retold here.

What is called pIC50 is the IC50 on a negative log10 scale, so that one unit is a factor of ten.

This experiment has as its target EphA2 extracellular domain fused to the Fc portion of an antibody (EphA2 Fc). In words: ELISA, inhibition of ephrin-A5 AP binding to immobilized EphA2 Fc; representative experiment; concentrations in nM.

pIC50: −log10 of the molar value.

EphA2 extracellular domain fused to the Fc portion of an antibody (EphA2 Fc), sequence (P29317 whole entry, the tested form may be a part): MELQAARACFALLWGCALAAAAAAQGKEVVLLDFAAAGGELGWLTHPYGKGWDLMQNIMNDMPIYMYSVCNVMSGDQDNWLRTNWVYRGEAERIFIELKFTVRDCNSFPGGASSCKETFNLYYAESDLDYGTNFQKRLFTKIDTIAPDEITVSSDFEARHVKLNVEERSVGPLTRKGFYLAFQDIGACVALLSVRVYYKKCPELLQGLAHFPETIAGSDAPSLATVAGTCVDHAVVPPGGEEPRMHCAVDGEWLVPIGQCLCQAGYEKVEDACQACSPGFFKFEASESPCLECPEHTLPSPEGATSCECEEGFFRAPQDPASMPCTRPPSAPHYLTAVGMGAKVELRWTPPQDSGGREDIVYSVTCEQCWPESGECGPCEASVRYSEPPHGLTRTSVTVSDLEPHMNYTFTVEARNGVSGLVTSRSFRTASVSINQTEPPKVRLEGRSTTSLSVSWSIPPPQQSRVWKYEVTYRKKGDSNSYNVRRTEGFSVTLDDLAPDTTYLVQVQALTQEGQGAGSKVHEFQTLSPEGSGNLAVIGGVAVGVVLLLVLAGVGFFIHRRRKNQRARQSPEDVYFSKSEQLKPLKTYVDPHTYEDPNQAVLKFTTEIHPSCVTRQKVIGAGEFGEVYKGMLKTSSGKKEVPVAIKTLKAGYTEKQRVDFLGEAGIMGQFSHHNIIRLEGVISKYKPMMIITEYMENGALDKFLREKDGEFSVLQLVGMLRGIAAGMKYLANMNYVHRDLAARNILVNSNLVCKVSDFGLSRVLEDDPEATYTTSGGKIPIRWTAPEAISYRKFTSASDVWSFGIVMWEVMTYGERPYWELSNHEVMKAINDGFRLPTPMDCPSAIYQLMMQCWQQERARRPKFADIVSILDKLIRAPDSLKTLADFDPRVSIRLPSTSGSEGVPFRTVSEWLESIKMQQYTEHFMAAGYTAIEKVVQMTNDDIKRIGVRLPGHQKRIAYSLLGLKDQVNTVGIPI

YSA1-10am (peptide) had a pIC50 of 5.46.

In turn, YSA-K-bio (peptide) had a negative-log IC50 (pIC50) of 5.55.
